From US5268275, “Vitamin K-dependent carboxylase” (The University of North Carolina at Chapel Hill, dated 1993)

How the values were obtained:
[1] = target: T1, bovine vitamin K-dependent carboxylase (94,000 Mr protein from bovine liver microsomes) (bovine) (UniProt Q07175)
T1 sequence: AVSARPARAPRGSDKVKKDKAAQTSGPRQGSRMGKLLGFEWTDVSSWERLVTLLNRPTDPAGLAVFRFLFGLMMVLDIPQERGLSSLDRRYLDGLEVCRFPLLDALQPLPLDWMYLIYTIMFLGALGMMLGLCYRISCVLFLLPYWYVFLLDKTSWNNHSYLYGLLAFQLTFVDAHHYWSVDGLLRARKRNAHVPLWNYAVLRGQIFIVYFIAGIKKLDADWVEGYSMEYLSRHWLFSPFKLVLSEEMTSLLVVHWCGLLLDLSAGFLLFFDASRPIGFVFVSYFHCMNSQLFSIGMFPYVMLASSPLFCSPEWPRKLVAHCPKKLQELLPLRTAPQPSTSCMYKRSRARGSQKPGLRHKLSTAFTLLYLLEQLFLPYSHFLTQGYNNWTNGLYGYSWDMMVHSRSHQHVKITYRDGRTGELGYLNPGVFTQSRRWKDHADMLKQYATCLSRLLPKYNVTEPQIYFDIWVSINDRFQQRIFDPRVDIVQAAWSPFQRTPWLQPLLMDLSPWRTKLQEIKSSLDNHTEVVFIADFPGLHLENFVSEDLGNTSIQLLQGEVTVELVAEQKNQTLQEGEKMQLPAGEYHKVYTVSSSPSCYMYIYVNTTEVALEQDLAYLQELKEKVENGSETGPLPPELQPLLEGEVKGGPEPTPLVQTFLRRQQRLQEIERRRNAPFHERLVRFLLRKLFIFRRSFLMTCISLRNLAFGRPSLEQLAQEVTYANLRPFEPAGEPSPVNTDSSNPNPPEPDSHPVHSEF

[2] = target: T2, bovine vitamin K-dependent carboxylase (94,000 Mr protein from bovine liver microsomes) (bovine, UniProt Q07175); experiment: competition of cross-linking of 125I-FIXQ/S to the carboxylase, 100-fold excess of proFIX19
T2 sequence: T1 sequence
From the text: In order to evaluate the binding specificity of FIXQ/S and attain an independent estimate of the molecular weight of the carboxylase, we cross-linked ^125I-FIXQ/S to 60-fold affinity-purified material (FIG. 1, lane 3). […] The minor bands in lane 2 were unaffected by competition (lane 1). By subtracting the molecular weight of FIXQ/S (7,000 M_r) from the estimated size of the cross-linked complex we estimate that the size of the protein to which the FIXQ/S peptide binds is approximately 94,000 M_r.

bovine vitamin K-dependent carboxylase (94,000 Mr protein from bovine liver microsomes) (from UniProt Q07175) (enzyme)
specific activity, 14CO2 incorporation into FLEEL (cpm/mg protein/hr) (peptide FLEEL): 2.4e+09

AVFLDHENANKILNRPKRY [Peptide proFIX19]
stimulation of the incorporation of CO2 into FLEEL [1]: 13 fold
binding result [2]: binds
